Experimental data from PMC5756042, “Molecular Defects of the Disease-Causing Human Arrestin-1 C147F Mutant” (Investigative Ophthalmology & Visual Science, 2018).

B1: human arrestin-1 C147F mutant (natural protein, UniProt P10523 1-405, looked up)
chain: MAASGKTSKSEPNHVIFKKISRDKSVTIYLGNRDYIDHVSQVQPVDGVVLVDPDLVKGKKVYVTLTCAFRYGQEDIDVIGLTFRRDLYFSRVQVYPPVGAASTPTKLQESLLKKLGSNTYPFLLTFPDYLPCSVMLQPAPQDSGKSFGVDFEVKAFATDSTDAEEDKIPKKSSVRLLIRKVQHAPLEMGPQPRAEAAWQFFMSDKPLHLAVSLNKEIYFHGEPIPVTVTVTNNTEKTVKKIKAFVEQVANVVLYSSDYYVKPVAMEEAQEKVPPNSTLTKTLTLLPLLANNRERRGIALDGKIKHEDTNLASSTIIKEGIDRTVLGILVSYQIKVKLTVSGFLGELTSSEVATEVPFRLMHPQPEDPAKESYQDANLVFEEFARHNLKDAGEAEEGKRDKNDVDE
modifications: labeled with 14C-Leu and 3H-Leu
notes: human arrestin-1 with the disease-causing C147F mutation (dominant retinitis pigmentosa in humans), transcription construct in pGEM2; The mutation occurs in human patients; here it was introduced into the transcription construct by PCR; also called CF; source: in vitro translated (rabbit reticulocyte lysate), radiolabelled
B2: human arrestin-1 C147L mutant (natural protein, UniProt P10523 1-405, looked up)
chain: MAASGKTSKSEPNHVIFKKISRDKSVTIYLGNRDYIDHVSQVQPVDGVVLVDPDLVKGKKVYVTLTCAFRYGQEDIDVIGLTFRRDLYFSRVQVYPPVGAASTPTKLQESLLKKLGSNTYPFLLTFPDYLPCSVMLQPAPQDSGKSLGVDFEVKAFATDSTDAEEDKIPKKSSVRLLIRKVQHAPLEMGPQPRAEAAWQFFMSDKPLHLAVSLNKEIYFHGEPIPVTVTVTNNTEKTVKKIKAFVEQVANVVLYSSDYYVKPVAMEEAQEKVPPNSTLTKTLTLLPLLANNRERRGIALDGKIKHEDTNLASSTIIKEGIDRTVLGILVSYQIKVKLTVSGFLGELTSSEVATEVPFRLMHPQPEDPAKESYQDANLVFEEFARHNLKDAGEAEEGKRDKNDVDE
modifications: labeled with 14C-Leu and 3H-Leu
notes: source: in vitro translated (rabbit reticulocyte lysate), radiolabelled
B3: human arrestin-1 C147I mutant (natural protein, UniProt P10523 1-405, looked up)
chain: MAASGKTSKSEPNHVIFKKISRDKSVTIYLGNRDYIDHVSQVQPVDGVVLVDPDLVKGKKVYVTLTCAFRYGQEDIDVIGLTFRRDLYFSRVQVYPPVGAASTPTKLQESLLKKLGSNTYPFLLTFPDYLPCSVMLQPAPQDSGKSIGVDFEVKAFATDSTDAEEDKIPKKSSVRLLIRKVQHAPLEMGPQPRAEAAWQFFMSDKPLHLAVSLNKEIYFHGEPIPVTVTVTNNTEKTVKKIKAFVEQVANVVLYSSDYYVKPVAMEEAQEKVPPNSTLTKTLTLLPLLANNRERRGIALDGKIKHEDTNLASSTIIKEGIDRTVLGILVSYQIKVKLTVSGFLGELTSSEVATEVPFRLMHPQPEDPAKESYQDANLVFEEFARHNLKDAGEAEEGKRDKNDVDE
modifications: labeled with 14C-Leu and 3H-Leu
notes: as for B2

Molecular target: T1, light-activated unphosphorylated rhodopsin (bovine, UniProt P02699 1-348)
T1 construct: source: purified from cow eyes; unphosphorylated; rhodopsin-containing membranes
T1 sequence (P02699 whole entry): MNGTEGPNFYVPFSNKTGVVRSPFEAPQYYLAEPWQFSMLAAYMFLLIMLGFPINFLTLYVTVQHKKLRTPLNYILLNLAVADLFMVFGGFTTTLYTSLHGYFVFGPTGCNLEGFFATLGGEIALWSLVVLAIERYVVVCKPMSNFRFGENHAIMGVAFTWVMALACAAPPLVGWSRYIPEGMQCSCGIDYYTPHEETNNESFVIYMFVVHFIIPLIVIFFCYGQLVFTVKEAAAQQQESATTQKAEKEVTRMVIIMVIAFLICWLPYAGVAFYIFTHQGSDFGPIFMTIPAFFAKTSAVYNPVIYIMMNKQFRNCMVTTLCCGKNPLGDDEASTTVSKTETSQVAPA
Experiment: radioligand binding; direct binding assay: 1 nM radiolabelled arrestin-1 (50 fmol) with 0.3 μg P-Rh* or Rh* (0.22 μM) in 50 μL of 50 mM Tris-HCl pH 7.4, 100 mM potassium acetate, 1 mM EDTA, 1 mM dithiothreitol, 5 minutes at 37°C under room light; bound and free separated at 4°C on Sepharose 2B-CL; scintillation counting; nonspecific binding subtracted
Conditions: one partner purified

Binder	fold increase of Rh* binding against WT [fold]
B1	> 2
B2	> 2
B3	> 2
